Legend:
Experiment in all cases: HRP-coupled steady-state kinetics
Type in all cases: biochemical, Phanerodontia chrysosporium
Conditions in all cases: apparent, 50 mM potassium phosphate pH 7.5, O2 as co-substrate
[1] = substrate: CC1CCC(O)O1
[2] = substrate: CC(O)CCCO
[3] = substrate: OCCCCCCO
[4] = substrate: CCCCCC=O
[5] = substrate: CCCCCCO
[6] = substrate: OCCCCCO
[7] = substrate: OCCOCCO

B1: alcohol oxidase from Phanerochaete chrysosporium (PcAOX; F101S-PcAOX = AOX*) (Phanerodontia chrysosporium; F101S) (protein)
chain: MGHPEEVDVIVCGGGPAGCVVAGRLAYADPTLKVMLIEGGANNRDDPWVYRPGIYVRNMQRNGINDKATFYTDTMASSYLRGRRSIVPCANILGGGSSINSQMYTRASASDWDDFKTEGWTCKDLLPLMKRLENYQKPCNNDTHGYDGPIAISNGGQIMPVAQDFLRAAHAIGVPYSDDIQDLTTAHGAEIWAKYINRHTGRRSDAATAYVHSVMDVQDNLFLRCNARVSRVLFDDNNKAVGVAYVPSRNRTHGGKLHETIVKARKMVVLSSGTLGTPQILERSGVGNGELLRQLGIKIVSDLPGVGEQYQDHYTTLSIYRVSNESITTDDFLRGVKDVQRELFTEWEVSPEKARLSSNAIDAGFKIRPTEEELKEMGPEFNELWNRYFKDKPDKPVMFGSIVAGAYADHTLLPPGKYITMFQYLEYPASRGKIHIKSQNPYVEPFFDSGFMNNKADFAPIRWSYKKTREVARRMDAFRGELTSHHPRFHPASPAACKDIDIETAKQIYPDGLTVGIHMGSWHQPSEPYKHDKVIEDIPYTEEDDKAIDDWVADHVETTWHSLGTCAMKPREQGGVVDKRLNVYGTQNLKCVDLSICPDNLGTNTYSSALLVGEKGADLIAEELGLKIKTPHAPVPHAPVPTGRPATQQVR
Question: Which Km [1] does the source give for B1 here?
Answer: 95.5 mM

Question: What about the kcat [1] of the same protein?
Answer: 1.13 s⁻¹

Question: What about the kcat/Km [1] of the same protein?
Answer: 11.8 M ^-1 s^-1

Question: And the Km [2]?
Answer: 52.6 mM

Question: What about the kcat [2] of the same protein?
Answer: 1.28 s⁻¹

Question: And the kcat/Km [2]?
Answer: 24.3 M ^-1 s^-1

Question: What about the Km [3] of the same protein?
Answer: 12.9 mM

Question: And the kcat [3]?
Answer: 4.07 s⁻¹

Question: And the kcat/Km [3]?
Answer: 316 M ^-1 s^-1

Question: And the Km [4]?
Answer: 0.20 mM

Question: What about the kcat [4] of the same protein?
Answer: 0.15 s⁻¹

Question: What about the kcat/Km [4] of the same protein?
Answer: 750 M ^-1 s^-1

Question: What about the Km [5] of the same protein?
Answer: 3.0 mM

Question: What about the kcat [5] of the same protein?
Answer: 0.56 s⁻¹

Question: What about the kcat/Km [5] of the same protein?
Answer: 187 M ^-1 s^-1

Question: What about the Km [6] of the same protein?
Answer: 69.6 mM

Question: What about the kcat [6] of the same protein?
Answer: 3.48 s⁻¹

Question: And the kcat/Km [6]?
Answer: 50.0 M ^-1 s^-1

Question: What about the Km [7] of the same protein?
Answer: 12.3 mM

Question: And the kcat [7]?
Answer: 0.73 s⁻¹

Question: What about the kcat/Km [7] of the same protein?
Answer: 59.3 M ^-1 s^-1
